The source of these data is patent publication US20240190989A1 (BEIGENE SWITZERLAND, published 2024).

Experiment [1] addresses T1, CEACAM1 (Cat. No. 10822-H08H, Sino Biological) (Homo sapiens (Human), UniProt P13688 35-428).
T1 construct: Bought protein
T1 sequence: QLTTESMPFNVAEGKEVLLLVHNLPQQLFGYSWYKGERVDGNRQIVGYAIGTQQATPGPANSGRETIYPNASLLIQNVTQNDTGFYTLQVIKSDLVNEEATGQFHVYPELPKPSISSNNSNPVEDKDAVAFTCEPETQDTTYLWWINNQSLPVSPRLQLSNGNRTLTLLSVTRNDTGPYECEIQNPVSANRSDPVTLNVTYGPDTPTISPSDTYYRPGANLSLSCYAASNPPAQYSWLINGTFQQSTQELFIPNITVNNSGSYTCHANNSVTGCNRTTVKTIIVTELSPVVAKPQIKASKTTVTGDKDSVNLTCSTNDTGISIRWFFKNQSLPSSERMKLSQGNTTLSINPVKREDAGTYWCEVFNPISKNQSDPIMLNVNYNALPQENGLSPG
Briefly: antigen ELISA, antigens coated at 10 µg/ml, anti-human Fc-HRP [panel A]. In general terms: ELISA stands for enzyme-linked immunosorbent assay.

The target in experiment [2] is T2, human CEACAM6, amino acids 1-320 with C-terminal 6xHis tag (human, UniProt P40199 35-320).
T2 sequence: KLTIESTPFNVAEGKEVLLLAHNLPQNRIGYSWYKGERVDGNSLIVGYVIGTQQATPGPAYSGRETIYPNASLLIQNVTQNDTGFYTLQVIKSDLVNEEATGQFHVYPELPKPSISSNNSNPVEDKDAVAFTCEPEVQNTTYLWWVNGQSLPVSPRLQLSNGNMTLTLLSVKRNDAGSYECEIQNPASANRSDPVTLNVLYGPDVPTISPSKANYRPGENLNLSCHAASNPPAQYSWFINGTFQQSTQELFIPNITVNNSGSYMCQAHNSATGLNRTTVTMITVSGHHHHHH
Described as above.

Experiment [3] has as its target T3, CEACAM3 transiently expressed on HEK293 cells (Homo sapiens (Human), UniProt P40198 35-252).
T3 sequence: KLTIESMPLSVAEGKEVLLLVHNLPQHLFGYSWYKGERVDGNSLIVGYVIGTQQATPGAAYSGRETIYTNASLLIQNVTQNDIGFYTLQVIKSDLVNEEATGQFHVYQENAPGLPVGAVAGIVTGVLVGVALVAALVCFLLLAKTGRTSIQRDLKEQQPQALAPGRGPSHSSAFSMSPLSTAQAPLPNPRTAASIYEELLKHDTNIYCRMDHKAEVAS
Briefly: flow cytometry on transfected HEK293 cells.

Experiment [4] concerns the target T4, CEACAM8 transiently expressed on HEK293 cells (Homo sapiens (Human), UniProt P31997 35-320).
T4 sequence: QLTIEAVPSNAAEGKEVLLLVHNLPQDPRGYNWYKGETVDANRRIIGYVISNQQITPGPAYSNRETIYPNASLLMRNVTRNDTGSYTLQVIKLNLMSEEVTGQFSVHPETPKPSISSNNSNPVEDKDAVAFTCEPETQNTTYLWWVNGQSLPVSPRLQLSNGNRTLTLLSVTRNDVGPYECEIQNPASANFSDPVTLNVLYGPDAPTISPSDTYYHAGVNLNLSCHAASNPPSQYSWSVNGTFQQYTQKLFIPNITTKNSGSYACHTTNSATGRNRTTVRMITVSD
Briefly: flow cytometry on transiently transfected HEK293 cells [panel B]. For orientation: A flow cytometer gives signals particle by particle.

Experiment [5] concerns the target T5, CEACAM7 transiently expressed on HEK293 cells (Homo sapiens (Human), UniProt Q14002 36-242).
T5 sequence: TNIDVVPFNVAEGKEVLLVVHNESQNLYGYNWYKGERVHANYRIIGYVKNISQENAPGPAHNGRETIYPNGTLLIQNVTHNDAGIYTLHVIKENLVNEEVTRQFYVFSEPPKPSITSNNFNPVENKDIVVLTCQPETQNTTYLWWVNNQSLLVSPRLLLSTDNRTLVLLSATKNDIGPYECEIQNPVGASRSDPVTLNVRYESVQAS
Described as above.

Experiment [6] addresses T6, full-length human CEA on cells (MKN45, LOVO, L929/huCEA, CT26/CEA, CT26-OS8-CEA) (human, UniProt P06731 35-685).
T6 construct: also called CEACAM5; native CEA
T6 sequence: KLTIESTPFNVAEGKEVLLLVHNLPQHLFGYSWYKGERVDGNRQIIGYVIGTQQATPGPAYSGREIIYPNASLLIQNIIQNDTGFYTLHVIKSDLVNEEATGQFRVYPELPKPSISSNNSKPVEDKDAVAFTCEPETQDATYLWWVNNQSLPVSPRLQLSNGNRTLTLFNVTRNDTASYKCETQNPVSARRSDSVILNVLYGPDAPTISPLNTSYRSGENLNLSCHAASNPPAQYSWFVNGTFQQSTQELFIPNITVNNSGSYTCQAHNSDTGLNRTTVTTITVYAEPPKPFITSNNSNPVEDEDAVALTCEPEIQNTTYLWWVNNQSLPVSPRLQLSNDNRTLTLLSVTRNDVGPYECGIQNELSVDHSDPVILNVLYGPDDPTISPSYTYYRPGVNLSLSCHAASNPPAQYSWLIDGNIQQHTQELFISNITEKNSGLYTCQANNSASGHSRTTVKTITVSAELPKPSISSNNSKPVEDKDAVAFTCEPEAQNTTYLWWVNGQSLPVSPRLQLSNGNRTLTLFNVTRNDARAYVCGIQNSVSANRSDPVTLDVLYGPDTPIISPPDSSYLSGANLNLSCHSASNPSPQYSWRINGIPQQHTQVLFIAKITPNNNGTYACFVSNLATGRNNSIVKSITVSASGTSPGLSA
The experiment is described as follows: flow cytometry on MKN45 cells, no soluble CEA.

B1: BGA113K (BGA113 with Y57K in the heavy chain) (antibody, human IgG1, V domains shown)
VH: QVQLVQSGAEVKKPGASVKVSCKASGYIFTSYYLHWVRQAPGQGLEWIGYINPQTGKTSYAQKFQGRVTMTRDTSTSTVYMELSSLRSEDTAVYYCAREYGNYNYPLDYWGQGTLVTVSS
VL: DIQMTQSPSSLSASVGDRVTITCRASENQYGYLAWYQQKPGKVPKLLIYNYKNLVEGVPSRFSGSGSGTDFTLTISSLQPEDVATYYCQHHLGTPYTFGQGTKVEIK
Take B1: the binding result in experiment [1] was “no binding (tested: not shown)”; in experiment [2], “no binding (tested: not shown)”; in experiment [3], “no binding (tested: 2 ug/ml)”; in experiment [4], “no binding (tested: 2 µg/ml (not on the sheet))”; in experiment [5], “no binding (tested: 2 µg/ml (not on the sheet))”. Also, in experiment [6], the EC50 (read off the curve) – broadly, the concentration giving half of the maximal effect – was around 0.8 µg/mL.
